Measured values: the supplement of paper PMC9876800

System: peptide library, one residue held at a place counted from the S/T acceptor
Assay: relative phosphorylation of the sub-library (ratio to the mean residue at this position); higher = residue favoured
Summary of the method: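 Human or orthologue kinase constructs, purified and recombinant, were incubated under kinase-specific conditions in 384-well plates with biotinylated degenerate peptide sub-libraries. Each sub-library fixed one residue at one position around a central Ser/Thr. Incubations lasted 90 min with peptides at 50 μM and 50 μM ATP spiked with γ-32P-ATP, after which spots on streptavidin membranes were phosphorimaged and quantified by densitometry. Relative sub-library phosphorylation is a ratio to the mean residue at that position.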

Chain of RPS6KB1, construct: aa1-421, human (P23443 1-421, looked up): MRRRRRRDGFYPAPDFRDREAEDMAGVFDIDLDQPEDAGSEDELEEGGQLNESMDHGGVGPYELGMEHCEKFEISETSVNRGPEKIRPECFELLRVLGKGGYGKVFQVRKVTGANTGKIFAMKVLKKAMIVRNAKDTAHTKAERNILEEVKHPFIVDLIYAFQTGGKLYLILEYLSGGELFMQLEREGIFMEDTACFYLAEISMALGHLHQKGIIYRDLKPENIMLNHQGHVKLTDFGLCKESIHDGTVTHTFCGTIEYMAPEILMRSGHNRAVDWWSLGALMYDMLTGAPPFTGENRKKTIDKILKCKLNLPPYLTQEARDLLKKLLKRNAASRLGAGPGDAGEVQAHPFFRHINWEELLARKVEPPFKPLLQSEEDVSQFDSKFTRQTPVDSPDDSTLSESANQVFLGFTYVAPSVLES

PRKCD, construct: Full length, human (from UniProt Q05655)
relative phosphorylation
Settings | at +1 | at +2 | at +3 | at +4 | at -1 | at -2 | at -3 | at -4 | at -5
A fixed | 0.496 | 0.437 | 0.73 | 0.842 | 0.91 | 0.9 | 0.795 | 1.04 | 1.04
D fixed | 0.253 | 0.525 | 0.696 | 1.03 | 0.598 | 0.587 | 0.699 | 0.932 | 1.2
E fixed | 0.309 | 0.317 | 0.608 | 0.63 | 0.465 | 0.531 | 0.579 | 0.972 | 0.903
F fixed | 1.51 | 0.438 | 0.642 | 0.4 | 0.549 | 0.621 | 0.594 | 0.703 | 0.815
G fixed | 0.553 | 0.459 | 1.11 | 1.28 | 1.64 | 1.2 | 0.977 | 1.36 | 1.18
H fixed | 0.803 | 1.39 | 0.871 | 1.23 | 0.961 | 1.13 | 1.17 | 1.14 | 1.07
I fixed | 1.65 | 0.64 | 0.781 | 0.695 | 0.355 | 0.466 | 0.401 | 0.617 | 0.809
K fixed | 1.74 | 3.33 | 2.15 | 2.05 | 2.3 | 1.9 | 1.91 | 1.55 | 1.48
L fixed | 1.21 | 0.564 | 0.846 | 0.757 | 0.658 | 0.506 | 0.464 | 0.608 | 0.78
M fixed | 1.58 | 0.69 | 0.801 | 0.731 | 0.852 | 0.677 | 0.576 | 0.807 | 0.657
N fixed | 0.685 | 1 | 1.04 | 1.13 | 1.38 | 1.22 | 1.07 | 1.1 | 0.932
P fixed | 0.343 | 0.487 | 0.68 | 1.54 | 1.29 | 0.835 | 1.12 | 1.18 | 1.17
Q fixed | 1.18 | 0.93 | 1.04 | 1.19 | 1.35 | 1.23 | 1.01 | 0.979 | 0.868
R fixed | 1.6 | 3.33 | 2.03 | 1.48 | 1.74 | 3.16 | 3.86 | 1.58 | 1.65
V fixed | 1.39 | 0.648 | 0.742 | 0.65 | 0.583 | 0.522 | 0.406 | 0.691 | 0.769
W fixed | 0.743 | 0.741 | 1.12 | 0.746 | 0.527 | 0.806 | 0.658 | 1.1 | 0.993
Y fixed | 0.961 | 1.07 | 1.11 | 0.625 | 0.834 | 0.713 | 0.707 | 0.638 | 0.685
pThr fixed | 0.685 | 0.458 | 0.52 | 0.675 | 0.341 | 0.563 | 0.624 | 0.713 | 0.644
pTyr fixed | 0.469 | 0.662 | 0.56 | 0.396 | 0.465 | 0.576 | 0.541 | 0.524 | 0.673

RPS6KB1, construct: aa1-421, human (from UniProt P23443)
relative phosphorylation
Settings | at +1 | at +2 | at +3 | at +4 | at -1 | at -2 | at -3 | at -4 | at -5
A fixed | 0.718 | 0.952 | 0.865 | 0.956 | 0.716 | 0.67 | 0.516 | 0.839 | 0.539
D fixed | 0.458 | 0.433 | 0.664 | 0.933 | 0.802 | 0.231 | 0.188 | 0.433 | 0.362
E fixed | 0.849 | 0.268 | 0.694 | 0.703 | 0.577 | 0.25 | 0.194 | 0.694 | 0.323
F fixed | 2.01 | 0.855 | 1.22 | 0.909 | 0.878 | 0.823 | 0.421 | 0.73 | 0.721
G fixed | 0.804 | 1.68 | 1.13 | 1.18 | 0.562 | 0.48 | 0.318 | 0.724 | 0.608
H fixed | 1.19 | 1.65 | 1.45 | 1.38 | 1.28 | 1.14 | 0.949 | 1.11 | 1.21
I fixed | 1.07 | 0.942 | 0.914 | 0.909 | 0.768 | 0.741 | 0.37 | 0.708 | 0.593
K fixed | 0.932 | 0.794 | 0.982 | 0.943 | 1.35 | 2.56 | 1.45 | 2.08 | 1.92
L fixed | 1.18 | 0.933 | 0.976 | 0.868 | 1.12 | 1.24 | 0.426 | 0.802 | 0.714
M fixed | 1.39 | 1 | 0.794 | 0.863 | 1.19 | 0.87 | 0.452 | 0.947 | 0.529
N fixed | 0.746 | 1.41 | 0.87 | 1.07 | 1.31 | 0.763 | 0.41 | 0.904 | 0.66
P fixed | 0.328 | 0.816 | 0.955 | 1.26 | 1.2 | 0.289 | 0.297 | 0.794 | 0.645
Q fixed | 0.717 | 0.707 | 1 | 0.966 | 0.957 | 0.841 | 0.541 | 1.05 | 0.934
R fixed | 0.944 | 1.61 | 1.08 | 0.784 | 1.3 | 3.7 | 8.82 | 2.34 | 5.28
V fixed | 1.19 | 1.06 | 0.772 | 0.926 | 1.01 | 0.596 | 0.362 | 1.01 | 0.562
W fixed | 1.42 | 0.935 | 1.43 | 1.26 | 0.8 | 0.751 | 0.658 | 0.989 | 0.738
Y fixed | 1.05 | 0.955 | 1.21 | 1.09 | 1.17 | 1.05 | 0.624 | 0.849 | 0.661
pThr fixed | 0.905 | 0.467 | 0.716 | 1.36 | 0.384 | 0.275 | 0.231 | 0.55 | 0.429
pTyr fixed | 1.39 | 0.696 | 0.954 | 1.14 | 1.77 | 0.451 | 0.348 | 0.598 | 0.579

PRKG1, construct: Full length, human (from UniProt Q13976)
relative phosphorylation
Settings | at +1 | at +2 | at +3 | at +4 | at -1 | at -2 | at -3 | at -4 | at -5
A fixed | 0.819 | 1.43 | 0.964 | 0.841 | 0.831 | 0.24 | 0.611 | 1.1 | 1.11
D fixed | 0.195 | 0.45 | 0.572 | 0.5 | 0.21 | 0.0553 | 0.075 | 0.315 | 0.381
E fixed | 0.236 | 0.242 | 0.458 | 0.419 | 0.193 | 0.0546 | 0.0892 | 0.395 | 0.517
F fixed | 1.29 | 1.16 | 1.23 | 1.13 | 1.05 | 0.201 | 0.447 | 0.986 | 1.08
G fixed | 0.479 | 0.901 | 1.06 | 1.07 | 0.416 | 0.248 | 0.684 | 0.878 | 1.06
H fixed | 1.2 | 1.62 | 1.49 | 1.31 | 1.25 | 0.518 | 1.48 | 1.3 | 1.24
I fixed | 1.73 | 1.25 | 1.02 | 1.19 | 0.958 | 0.168 | 0.262 | 0.75 | 0.82
K fixed | 0.623 | 0.642 | 0.669 | 0.715 | 1.42 | 5.12 | 2.17 | 1.53 | 1.43
L fixed | 1.45 | 0.936 | 1.07 | 1.22 | 1.33 | 0.166 | 0.239 | 0.996 | 0.779
M fixed | 1.56 | 1.03 | 1.26 | 1.22 | 1.43 | 0.171 | 0.351 | 1.31 | 0.877
N fixed | 0.589 | 0.94 | 0.909 | 1.15 | 0.787 | 0.264 | 0.329 | 0.891 | 0.905
P fixed | 0.177 | 0.576 | 0.743 | 1.35 | 0.718 | 0.13 | 0.421 | 0.58 | 0.8
Q fixed | 0.967 | 1.16 | 0.964 | 1.02 | 0.868 | 0.402 | 0.674 | 0.851 | 0.848
R fixed | 0.982 | 0.6 | 0.861 | 0.754 | 1.95 | 8.27 | 7.6 | 2.14 | 1.81
V fixed | 2.26 | 1.53 | 1.03 | 0.847 | 1.16 | 0.544 | 0.273 | 0.77 | 0.914
W fixed | 1.12 | 1.35 | 1.33 | 1.24 | 0.797 | 0.22 | 0.482 | 1.06 | 1.25
Y fixed | 1.33 | 1.2 | 1.38 | 1.02 | 1.64 | 0.23 | 0.82 | 1.15 | 1.19
pThr fixed | 0.343 | 0.228 | 0.412 | 0.444 | 0.174 | 0.142 | 0.214 | 0.542 | 0.627
pTyr fixed | 0.365 | 0.324 | 0.493 | 0.5 | 0.324 | 0.098 | 0.248 | 0.487 | 0.659
